Where a chain is given by its changes, count along the chain named.
T1: huCLL1-Q244-Avi-Tev-His (human, UniProt Q5QGZ9 65-265)
T1 construct: extracellular domain; also called CLL-1 K244Q
T1 sequence (looked up): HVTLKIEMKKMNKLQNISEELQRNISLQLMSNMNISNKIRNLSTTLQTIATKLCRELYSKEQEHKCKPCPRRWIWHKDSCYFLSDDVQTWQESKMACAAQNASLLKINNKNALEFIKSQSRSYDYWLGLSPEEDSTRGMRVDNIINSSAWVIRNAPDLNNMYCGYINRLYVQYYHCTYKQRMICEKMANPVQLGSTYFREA

T2: huCLL1-K244-Avi-Tev-His (human, UniProt Q5QGZ9 65-265)
T2 construct: extracellular domain
T2 sequence (looked up): T1 sequence (looked up) with Q180K

B1: Polypeptide No. 63 (scFv, V domains shown)
VH: QVQLVQSGAEVKKPGASVKVSCKASGYTFTGYYVHWVRQAPGQGLEWMGVINPSGGGSPSYAQKFQGRVTMTRDTSTSTVYMELSSLRSEDTAVYYCARDRSDVDYGMDVWGQGTTVTVSS
VL: DIQMTQSPSSLSASVGDRVTITCQASQDISNYLNWYQQKPGKAPKLLIYDASNLQSGVPSRFSGSGSGTDFTLTISSLQPEDFATYYCLQHNSYPLTFGGGTKVEIKR
notes: scFv
B2: Polypeptide No. 64 (scFv, V domains shown)
VH: QVQLVQSGAEVKKPGASVKVSCKASGYTFTDYYMHWVRQAPGQGLEWMGLIDPSGGSTNSLQKFQGRVTMTRDTSTSTVYMELSSLRSEDTAVYYCARDVGFGELSFDIWGQGTTVTVSS
VL: DIVMTQSPLSLPVTPGEPASISCRSSQSLLHSNGYNYLDWYLQKPGQSPQLLIYAASTLQSGVPDRFSGSGSGTDFTLKISRVEAEDVGVYYCMQGTHWPPTFGPGTKVDIKR
notes: scFv
B3: Polypeptide No. 65 (scFv, V domains shown)
VH: QVQLVQSGAEVKKPGASVKVSCKASGYTFTGYYMHWVRQAPGQGLEWMGWINPNSGGTNYAQKFQGRVTMTRDTSTSTVYMELSSLRSEDTAVYYCAREIGGYDNYYYYGMDVWGQGTTVTVSS
VL: DIQMTQSPSSLSASVGDRVTITCRASQSIGTYLNWYQQKPGKAPKLLIYAASSLQSGVPSRFSGSGSGTDFTLTISSLQPEDFATYYCQQSYTDPWTFGQGTKVEIKR
notes: scFv
B4: Polypeptide No. 66 (scFv, V domains shown)
VH: QVQLVQSGAEVKKPGASVKVSCKASGYTFNTYYMHWVRQAPGQGLEWMGWMHPNTGNTGYAQKFQGRVTMTRDTSTSTVYMELSSLRSEDTAVYYCARGTTSDAFDIWGQGTMVTVSS
VL: B3 VL with G30F, T31S, A50S, S53N, T93S, D94T, W96I
notes: scFv
B5: Polypeptide No. 67 (scFv, V domains shown)
VH: QVQLVQSGAEVKKPGASVKVSCKASGDTFTRHYVHWVRQAPGQGLEWMGRVNPRDGRTNSAQKFQGRVTMTRDTSTSTVYMELSSLRSEDTAVYYCAKDMFPTVTGTYYYYGMDVWGQGTTVTVSS
VL: DIQMTQSPSSLSASVGDRVTITCRASQGISSYLAWYQQKPGKAPKLLIYDASNLETGVPSRFSGSGSGTDFTLTISSLQPEDFATYYCQQASGFPYTFGQGTRLEIKR
notes: scFv
B6: Polypeptide No. 68 (scFv, V domains shown)
VH: QVQLVQSGAEVKKPGASVKVSCKASGYTFSSYDINWVRQAPGQGLEWVGWINPRNGGTDYAQKFQGRVTMTRDTSTSTVYMELSSLRSEDTAVYYCARHRWELDSFDYWGQGTLVTVSS
VL: B3 VL with G30S, T31N, A51T, S91G, T93N, D94I, W96F, V104L
notes: scFv
B7: Polypeptide No. 70 (scFv, V domains shown)
VH: EVQLLESGGGLVQPGGSLRLSCAASGMSVTSNHMSWVRQAPGKGLEWVSSIYPDGKTYYADSVKGRFTISRDNSKNTLYLQMNSLRAEDTAVYYCARDEEDWFDPWGQGTLVTVSS
VL: B3 VL with R24Q, G30S, T31N, Y32W, N34A, S53T, T93S, D94T
notes: scFv
B8: Polypeptide No. 71 (scFv, V domains shown)
VH: EVQLLESGGGLVQPGGSLRLSCAASGFTFSNHYMSWVRQAPGKGLEWVAVIWPDGSKEYYADSVKGRFTISRDNSKNTLYLQMNSLRAEDTAVYYCAREDYYGSGMDYWGQGTLVTVSS
VL: B1 VL with D50G, N53T, L89Q, H91Y, N92D, L96P
notes: scFv
B9: Polypeptide No. 72 (scFv, V domains shown)
VH: QVQLVQSGAEVKKPGASVKVSCKASGGTFSNYAISWVRQAPGQGLEWMGWISAYNGNSDYAQNLQGRVTMTRDTSTSTVYMELSSLRSEDTAVYYCAIGDYFDYWGQGTLVTVSS
VL: B1 VL with Q27E, S30N, N31K, Q55E, S56T, L89Q, H91A, Y94F, G100Q
notes: scFv
B10: Polypeptide No. 74 (scFv, V domains shown)
VH: QVQLVQSGAEVKKPGSSVKVSCKASGYTFTKYEINWVRQAPGQGLEWMGGIIPIFGTANYAQKFQGRVTITADESTSTAYMELSSLRSEDTAVYYCARGSGWYTPLFDYWGQGTLVTVSS
VL: DIQMTQSPSSLSASVGDRVTITCRASQGISNNLNWYQQKPGKAPKLLIYDASYLETGVPSRFSGSGSGTDFTLTISSLQPEDFATYYCQQSYSAPLTFGQGTKVEIKR
notes: scFv
B11: Polypeptide No. 76 (scFv, V domains shown)
VH: QVQLVQSGAEVKKPGASVKVSCKASGYTFTTYYMHWVRQAPGQGLEWMGIINVSAGTTSYAQKFQGRVTMTRDTSTSTVYMELSSLRSEDTAVYYCAKEPYPHQSGWFFDYWGQGTLVTVSS
VL: B1 VL with S30N, Q55E, S56T, L89Q, H91A, Y94F
notes: scFv
B12: Polypeptide No. 78 (scFv, V domains shown)
VH: QVQLVQSGAEVKKPGSSVKVSCKASGGTFSRYPFSWVRQAPGQGLEWMGWMNPNNGDTGYAQKFQGRVTITADESTSTAYMELSSLRSEDTAVYYCARGDYPYMDVWGKGTTVTVSS
VL: B10 VL with R24Q, G28D, N32Y, Y53N, A94I, L96Y, V104L
notes: scFv
B13: Polypeptide No. 80 (scFv, V domains shown)
VH: QVQLVQSGAEVKKPGASVKVSCKASGFTFTSYYMHWVRQAPGQGLEWMGWMNPNSGNTGYAQRFQGRVTMTRDTSTSTVYMELSSLRSEDTAVYYCARGHSRTDYGMDVWGQGTTVTVSS
VL: B10 VL with G28S, N31S, N32W, N34A, A51T, Y53S, E55Q, T56S, S91G, A94T
notes: scFv
B14: Polypeptide No. 81 (scFv, V domains shown)
VH: EVQLLESGGGLVQPGGSLRLSCAASGFTFSDHYMSWVRQAPGKGLEWVSIIYPDGKTYYADSVKGRFTISRDNSKNTLYLQMNSLRAEDTAVYYCAREGSYGDYDGMDVWGQGTTVTVSS
VL: B1 VL with D50G, N53T, L89Q, H91S, N92Y, Y94T, L96W, G100Q, V104L
notes: scFv
B15: Polypeptide No. 82 (scFv, V domains shown)
VH: QVQLVQSGAEVKKPGSSVKVSCKASGGTFSNYDISWVRQAPGQGLEWMGGIIPIFGTANYAQKFQGRVTITADESTSTAYMELSSLRSEDTAVYYCAREAEEGGWFDPWGQGTLVTVSS
VL: EIVMTQSPATLSVSPGERATLSCRASQSVSSYLAWYQQKPGQAPRLLIYGASTRATGIPARFSGSGSGTEFTLTISSLQSEDFAVYYCQQYAFSPITFGQGTKLEIKR
notes: scFv
B16: Polypeptide No. 84 (scFv, V domains shown)
VH: QVQLVQSGAEVKKPGASVKVSCKASGGTFSNYAISWVRQAPGQGLEWMGWINPNSGGTNYAQKFQGRVTMTRDTSTSTVYMELSSLRSEDTAVYYCARVGYYDSSGGGMDVWGQGTTVTVSS
VL: DIQMTQSPSSLSASVGDRVTITCRASQSISSWLAWYQQKPGKAPKLLIYDASNLETGVPSRFSGSGSGTDFTLTISSLQPEDFATYYCLQTHSFPLTFGPGTKVDIKR
notes: scFv
B17: Polypeptide No. 86 (scFv, V domains shown)
VH: QVQLVQSGAEVKKPGASVKVSCKASGYTFTTYGISWVRQAPGQGLEWMGWINPNSGDTNYAQKFQGRVTMTRDTSTSTVYMELSSLRSEDTAVYYCARLTTATDSFDLWGRGTLVTVSS
VL: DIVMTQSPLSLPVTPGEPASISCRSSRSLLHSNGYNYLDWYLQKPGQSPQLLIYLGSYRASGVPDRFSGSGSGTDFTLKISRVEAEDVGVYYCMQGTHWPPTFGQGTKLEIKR
notes: scFv
B18: Polypeptide No. 88 (scFv, V domains shown)
VH: QVQLVQSGAEVKKPGASVKVSCKASGYTFTGYHIHWVRQAPGQGLEWMGRINPNSGGTDYAQKFQGRVTMTRDTSTSTVYMELSSLRSEDTAVYYCARETYSGSYEESFDYWGQGTLVTVSS
VL: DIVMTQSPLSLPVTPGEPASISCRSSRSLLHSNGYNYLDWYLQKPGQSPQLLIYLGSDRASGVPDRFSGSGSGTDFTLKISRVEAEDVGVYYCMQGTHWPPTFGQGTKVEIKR
notes: scFv
B19: Polypeptide No. 43 (scFv, V domains shown)
VH: QVQLVQSGAEVKKPGASVKVSCKASGYTFTNYYMHWVRQAPGQGLEWLGWISPYSGDTKYAQTLQGRVTMTRDTSTSTVYMELSSLRSEDTAVYYCARESMDRLDYWGQGTLVTVSS
VL: DIQMTQSPSSLSASVGDRVTITCRASQSISTYLNWYQQKPGKAPKLLIYDASNLETGVPSRFSGSGSGTDFTLTISSLQPEDFATYYCQQSYSTPVLTFGGGTKVEIKR
notes: scFv
B20: Polypeptide No. 44 (scFv, V domains shown)
VH: EVQLLESGGGLVQPGGSLRLSCAASGFTFSSYAMHWVRQAPGKGLEWVADISGSGGLTYYADSVKGRFTISRDNSKNTLYLQMNSLRAEDTAVYYCAREGDQYSSSSFFDYWGQGTLVTVSS
VL: not shown
notes: scFv
B21: Polypeptide No. 45 (scFv, V domains shown)
VH: EVQLVESGGGLVKPGGSLRLSCAASGFTFDEFGMNWVRQAPGKGLEWISYISGDSGYTNCADSVKGRFTISRDDSKNTLYLQMNSLKTEDTAVYYCAAGYGGYYFDYWGQGTLVTVSS
VL: B1 VL with S30D, N31I, D50A, N53T, Q55E, L89Q, H91S, N92Y, Y94T, L96P
notes: scFv

How the values were obtained:
huCLL1-Q244-Avi-Tev-His = molecular target: T1, huCLL1-Q244-Avi-Tev-His; test: BLI
Description: (§1) Discovered scFvs were analyzed for binding to huCD33-R69-His or huCD33-G69-Fc recombinant proteins (for anti-CD33 scFvs; for CLL-1 scFvs, huCLL1-K244-Avi-Tev-His or huCLL1-Q244-Avi-Tev-His were used; for FLT3, huFLT3-T227-His or huFLT3-M227-Fc were used) using BLI on a ForteBio Octet HTX instrument. Streptavidin-coated biosensors were loaded with biotinylated anti-V5 tag monoclonal antibody for 5 min and were then quenched and blocked with 20 μM amine-PEG2-Biotin for 5 min. scFvs were captured on biosensors from scFv clone periplasmic extracts. huCD33 (or huCLL-1, or huFLT3) proteins were then associated with the captured scFvs for 2 minutes, followed by dissociation with buffer (1×HBST [10 mM HEPES pH 7.4, 150 mM NaCl, 0.05% Tween-20], 1 g/L BSA) for 5 minutes. […] Data was fitted with 1:1 Langmuir equation and off-rate values were reported.
(§2) Analogous methods were used to assess selectivity of binding of polypeptides to CLL-1 K244 or CLL-1 Q244.

huCLL1-K244-Avi-Tev-His = molecular target: T2, huCLL1-K244-Avi-Tev-His; test: BLI
Description: as §1, §2
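Also: Bio-layer interferometry with scFvs captured on biosensors via anti-V5 antibody, exposed 2 min to CLL-1 K244 or Q244 protein, 5 min dissociation, scored as binding, no binding or ambiguous.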

Binder | binding result (huCLL1-Q244-Avi-Tev-His) | binding result (huCLL1-K244-Avi-Tev-His)
B1 | no binding | binds
B2 | no binding | binds
B3 | no binding | binds
B4 | no binding | binds
B5 | binds | no binding
B6 | binds | no binding
B7 | binds | no binding
B8 | binds | no binding
B9 | binds | no binding
B10 | binds | no binding
B11 | binds | no binding
B12 | binds | no binding
B13 | binds | no binding
B14 | binds | no binding
B15 | binds | no binding
B16 | binds | no binding
B17 | binds | no binding
B18 | binds | no binding
B19 | no binding | binds
B20 | no binding | binds
B21 | no binding | binds
